Measured values reported in patent US7419813B2, “Fructosyl peptide oxidase” (Kikkoman Corporation, priority 2001, dated 2008).

B1: Coniochaeta sp. NISL 9330: fructosyl peptide oxidase produced by Coniochaeta sp. NISL 9330 (FERM BP-7798) with less action on ε-fructosyl lysine; amino acid sequence SEQ ID NO: 1 (protein, listed as Coniochaeta sp.)
chain: MTSNRADTRVIVVGGGGTIGSSTALHLVRSGYAPANITVLDTFEIPSAQSAGHDLNKIMGIRLRNKVDLQMSLEARQMWKEDELFQPFFHNTGRMDCEHTPEGIEDLKKQYQALHDAGAGLEKTHAWLDNEDEILSKMPLLQRDQIQGWKAIWSQDGGWLAAAKAINAIGQFLKERGVKFGFGGAGSFKQPLFDDEGTTCIGVETADGTKYYADKVVLAAGAWSPTLVDLEDQCCSKAWVYAHIQLTPEEAAEYKGVPVVYNGEFGFFFEPNEFGVIKVCDEFPGFSRFKEHQPYGAPSPKHISVPRSHAKHPTDTYPDASEVSIKKAIATFLPRFQDKELFNRALCWCTDTADAALLMCEHPKWKNFILATGDSGHSFKILPNVGKHVVELIEGRLPEEMAYQWRWRPGGDALKSRRAAPPKDLADMPGWKHDPKL
B2: Eupenicillium terrenum ATCC 18547: fructosyl peptide oxidase produced by Eupenicillium terrenum ATCC 18547 with less action on ε-fructosyl lysine; amino acid sequence SEQ ID NO: 3 (protein, listed as Eupenicillium terrenum)
chain: MAHSRASTKVVVVGGGGTIGSSTALHLIRSGYTPSNITVLDVYKTPSLQSAGHDLNKIMGIRLRNGPDLQLSLESLDMWQNDELFKPFFHQVGMIDCSSSKEGIENLRRKYQTLLDAGIGLEKTNVWLESEDEILAKAPNFTREQVKGWKGLFCTDGGWLAAAKAINAIGIFLQDKGVKFGFGGAGTFQQPLFAADGKTCIGLETTDGTKYFADKVVLAAGAWSPTLVDLEDQCVSKAWVFAHIQLTPKEADAYKNVPVVYDGEYGFFFEPNEYGVIKVCDEFPGFSRFKLHQPYGAASPKMISVPRSHAKHPTDTYPDASEVTIRKAIARFLPEFKDKELFNRTMCWCTDTADANLLICEHPKWKNFILATGDSGHSFKLLPNIGKHVVELLEGSLSQEMAGAWRWRPGGDALRSRRGAPAKDLAEMPGWKHDAHL

Key:
[1] = Enzyme activity assay, ε-fructosyl lysine substrate; format: biochemical; conditions: for Substrate specificity (% relative activity) εFL: crude enzyme sample; for relative activity for ε-fructosyl lysine: purified oxidase, compared to 100% activity for fructosyl valyl histidine
Description: Enzyme activities of the oxidase of the invention and the oxidase of the invention that have less action on ε-fructosyl lysine (hereinafter, the term “the oxidases of the invention” may comprise both the oxidase of the invention and the oxidase of the invention that have less action on ε-fructosyl lysine) may principally be determined by determining the amount of α-ketoaldehyde, peptide, hydrogen peroxide or the like which are produced through enzyme reaction or by determining the amount of oxygen consumed by the enzyme reaction. Hereinafter, a method for determining the amount of hydrogen peroxide will be described as one example. Unless otherwise noted, fructosyl valyl histidine is used as a substrate for determining the activities of the oxidases of the invention. Titer of the enzyme is defined such that an amount of enzyme for producing 1 μmol hydrogen peroxide per minute is 1U as determined using a fructosyl valyl histidine substrate. 624 mg of fructosyl valyl histidine is dissolved in ion exchange water to a constant volume of 10 ml. Alternatively, fructosyl glycine or ε-fructosyl lysine of 357 mg or 462 mg, respectively, may be dissolved in ion exchange water to a constant volume of 10 ml to be used as a substrate. Fructosyl valine histidine was prepared as described in Japanese Patent Application Laid-Open (kohyo) No. 2001-95598. Fructosyl glycine and ε-fructosyl lysine were prepared according to a method of Horiuchi et al. (Agric. Biol. Chem., 53, 103-110, 1989; Agric. Biol. Chem., 55, 333-338, 1991). 2.7 ml of Reagent 1, 100 μl of Reagent 2 and 100 μl of enzyme solution are mixed and pre-heated at 30° C. for 5 minutes. Then, 100 μl of Reagent 3 is added and thoroughly mixed to determine absorbance at 510 nm using a spectrophotometer (U-[…], Hitachi, Ltd.). Measurement values indicate changes in the absorbance per minute at 510 nm after 1 to 3 minutes. A control solution was prepared in the same manner as described above except 100 μl ion exchange water was added instead of 100 μl Reagent 3. A standard solution of hydrogen peroxide and ion exchange water were used instead of Reagent 3 and the enzyme solution, respectively, to prepare a graph showing relationship with respect to the level of color. Referring to this graph, micromole of hydrogen peroxide produced per minute at 30° C. is calculated and used as the unit for expressing the activity of the enzyme solution. The presence of action on ε-fructosyl lysine can be determined in the same manner by using Reagent 3 (substrate solution) containing ε-fructosyl lysine substrate instead of fructosyl valyl histidine substrate.

[2] = Optimum temperature range of the enzyme reaction; format: biochemical; conditions: purified oxidase
Method: For example, a reaction solution having the same composition as that of a reaction solution used for the activity assay described later is used to determine activities of the enzyme at various temperatures, thereby determining a suitable temperature range for action. The oxidases of the invention may, for example, have a suitable temperature range of 20-50° C., preferably 25-45° C. For example, a reaction solution having the same composition as that of a reaction solution for the activity assay described later is used to determine activities of the enzyme at various temperatures, thereby determining a suitable temperature range. The oxidases of the invention that have less action on ε-fructosyl lysine may, for example, have a suitable temperature range of 20-50° C., preferably 25-40° C. The activity of the inventive oxidase was assayed at different temperatures using reactions which consisted of the same compositions as those used in the above-described activity assay.

[3] = format: physicochemical; conditions: pH 8
Method: For example, 200 mM potassium phosphate buffer (pH 8.0) is used for a treatment at 45° C. for 10 minutes to determine the remaining activities of the oxidases of the invention. The oxidases of the invention having high stability at a high temperature range are particularly preferable for industrial use. The oxidases of the invention may, for example, have a remaining activity of 50% or higher, preferably 70% or higher, and more preferably 80% or higher under the above-described conditions. For example, 200 mM potassium phosphate buffer (pH 8.0) is used for a treatment at 45° C. for 10 minutes. Then, the remaining activities of the enzymes of the invention are determined. The oxidases of the invention having high stability at a high temperature range are particularly preferable for industrial use. The oxidases of the invention that have less action on ε-fructosyl lysine may, for example, have a remaining activity of 50% or higher, preferably 70% or higher, more preferably 80% or higher under the above-described conditions. […] Next, the physiochemical properties of these oxidases were determined. […] Each crude enzyme sample was heat-treated at 45° C. for 10 minutes, and then its activity for fructosyl valyl histidine was determined and compared to the activity before treatment. […]

[4] = reference substrate set to 100%

Molecule | Substrate specificity (% relative activity) εFL [1, 4] [%] | relative activity for ε-fructosyl lysine [1] [%] | temperature of maximum activity (100%) [2] | Substrate specificity (% relative activity) εFL ([1]; relative to activity for fructosyl valyl histidine (100%)) [%] | remaining activity following heat treatment at 45° C. for 10 minutes [3] | optimum temperature range ([2]; relative activities of 50% or 60% or higher)
B1 | 100 | 61 | around 40 °C | – | – | –
B2 | 100 | 9.78 | around 35 °C | 9.78 | approximately 100% | 25-40 °C
